Experiment [1] has as its target FOXO3a (human) (UniProt O43524). Nature of the experiment: cell-based or functional assay.
Experiment [2] concerns the target FOXO3a-TM (human) (UniProt O43524). Nature of the experiment: cell-based or functional assay.

This is an account of results in patent publication US20060019314A1.

In experiment [1], human Smek1 (from UniProt Q6IN85 1-833) displayed a synthetic FOXO luciferase reporter (three tandem IRS elements), HepG2 cells (percent increase) of 50. Moreover, in experiment [2], the synthetic FOXO luciferase reporter (three tandem IRS elements), 293 cells was found to be 12 fold and the synthetic FOXO luciferase reporter (three tandem IRS elements), HepG2 cells was found to be 2 fold.
